Experimental data from paper PMC3778711, “The central role of mosquito cytochrome P450 CYP6Zs in insecticide detoxification revealed by functional expression and structural modelling” (Biochemical Journal, 2013).

T1: CYP6Z2 (AgCYP6Z2) (Anopheles gambiae, UniProt A8I285)
T1 construct: with NADPH--cytochrome P450 reductase
T1 sequence (A8I285 1-492): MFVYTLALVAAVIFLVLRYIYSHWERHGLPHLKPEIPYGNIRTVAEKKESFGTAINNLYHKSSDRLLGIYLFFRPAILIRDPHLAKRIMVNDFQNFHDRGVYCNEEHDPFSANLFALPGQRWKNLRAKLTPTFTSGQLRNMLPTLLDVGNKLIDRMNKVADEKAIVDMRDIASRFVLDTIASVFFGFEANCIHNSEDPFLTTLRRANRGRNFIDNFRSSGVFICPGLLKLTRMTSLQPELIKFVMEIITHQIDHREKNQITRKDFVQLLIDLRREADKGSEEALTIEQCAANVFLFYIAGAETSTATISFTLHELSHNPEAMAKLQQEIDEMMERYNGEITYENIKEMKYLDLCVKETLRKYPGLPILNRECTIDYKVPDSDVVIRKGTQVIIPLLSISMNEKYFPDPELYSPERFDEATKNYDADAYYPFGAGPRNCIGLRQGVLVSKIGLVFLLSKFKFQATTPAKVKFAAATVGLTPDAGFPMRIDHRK
T1 sequence (Q86QH5 1-679 partner): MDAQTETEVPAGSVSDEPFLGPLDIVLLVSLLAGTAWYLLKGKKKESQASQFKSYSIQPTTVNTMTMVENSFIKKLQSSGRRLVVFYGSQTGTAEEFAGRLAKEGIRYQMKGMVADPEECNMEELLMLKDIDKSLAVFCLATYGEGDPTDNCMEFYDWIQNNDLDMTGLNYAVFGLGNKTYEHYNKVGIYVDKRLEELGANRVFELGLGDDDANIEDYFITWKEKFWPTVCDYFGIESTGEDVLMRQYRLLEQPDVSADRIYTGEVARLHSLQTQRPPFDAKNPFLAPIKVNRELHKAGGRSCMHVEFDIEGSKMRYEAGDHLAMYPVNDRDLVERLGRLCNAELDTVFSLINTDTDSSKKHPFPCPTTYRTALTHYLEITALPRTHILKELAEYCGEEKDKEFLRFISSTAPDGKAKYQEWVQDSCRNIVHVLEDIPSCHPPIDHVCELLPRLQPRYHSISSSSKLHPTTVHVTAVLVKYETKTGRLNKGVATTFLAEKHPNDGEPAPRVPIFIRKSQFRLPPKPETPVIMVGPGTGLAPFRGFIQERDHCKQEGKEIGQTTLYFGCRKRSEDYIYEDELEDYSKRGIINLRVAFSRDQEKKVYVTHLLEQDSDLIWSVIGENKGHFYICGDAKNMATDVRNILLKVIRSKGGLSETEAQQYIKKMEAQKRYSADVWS

B1: CYP6Z8 (W(AeR)-CYP6Z8 microsomes; CYP6Z8v1) (Aedes aegypti) (protein)
chain: MFIYTFALFWLAVAFAIRYIYSYWDRNGLPSIKPHIPYGNLKTVANRTESFGVATCDLYWKSKDRLVGIYLFFRPAVLIRDAHLAQQIMTTDFSHFHDRGVFCNEEVDPFSANLFALAGKRWRNLRNKFTPLFTGGQLRCMMPTILNVGHKLQNVLEPAAKKQEVLEIRELVSRCVLDIIASVFFGFEANCINDPNDAFIQNLRELQYDGFFNNLRAAATFICPELLKLTRISSLSPEMIRFVTDIVTKQIEHREKNNVTRKDFIQLLIDLRREDANNNEATLGLEECAANVFLFYVAGSDTSTSAVAFTLHELTQNVETMEKLQTEIDEMLVKTSGELTYDGIKEMSYLDLCVKETLRKYPGLAILNRECTKSYAVPNSNIVLKKGTQVVIPLLAYGMDEKYFPEPDRYLPERFDKSTKNYDEKAFYPFGEGPRNCIAFRMGVMVSKICLVLLLSRFNFEATRGPKINFTPSTVALLPKGGIPVKISIR
notes: full-length, no protein modification; codon-optimised gene in S. cerevisiae W(AeR) with Ae. aegypti CPR integrated; microsomes; with NADPH--cytochrome P450 reductase

Key:
CYP6Z2 (AgCYP6Z2) = molecular target: T1, CYP6Z2 (AgCYP6Z2); assay: reverse-phase HPLC, E. coli membranes; type: biochemical; details: 10 μM substrate, 0.1 mM NADPH with regeneration system, 5 mM MgCl2, 30°C
[1] = substrate: CCOc1ccc2ccc(=O)oc2c1; assay: 7-hydroxycoumarin fluorescence (O-de-ethylation), yeast microsomes; type: biochemical, Aedes aegypti; details: apparent, 0.1 mM NADPH with regeneration system, 0.1 M phosphate pH 7.4, 30°C, 15 min
Description: 7-hydroxycoumarin fluorescence (O-de-ethylation), yeast microsomes on CYP6Z8 (W(AeR)-CYP6Z8 microsomes; CYP6Z8v1)

[2] = substrate: OCc1cccc(Oc2ccccc2)c1; assay: reverse-phase HPLC, yeast microsomes; type: biochemical, Aedes aegypti; details: 0.1 mM NADPH with regeneration system, 5 mM MgCl2, 30°C
[3] = substrate: CCCCCOc1ccc2nc3ccc(=O)cc-3oc2c1; assay: resorufin fluorescence, yeast microsomes; type: biochemical, Aedes aegypti; details: apparent, 0.1 mM NADPH with regeneration system, 0.1 M phosphate pH 7.4, 30°C, 15 min
Description: (§1) resorufin fluorescence, yeast microsomes on CYP6Z8 (W(AeR)-CYP6Z8 microsomes; CYP6Z8v1)

[4] = substrate: CCOc1ccc2nc3ccc(=O)cc-3oc2c1; assay: resorufin fluorescence, yeast microsomes; type: biochemical, Aedes aegypti; details: apparent, 0.1 mM NADPH with regeneration system, 0.1 M phosphate pH 7.4, 30°C, 15 min
Description: as §1

[5] = substrate: O=c1ccc2nc3ccc(OCc4ccccc4)cc3oc-2c1; assay: resorufin fluorescence, yeast microsomes; type: biochemical, Aedes aegypti; details: apparent, 0.1 mM NADPH with regeneration system, 0.1 M phosphate pH 7.4, 30°C, 15 min
Description: as §1

| Molecule | reverse-phase HPLC, E. coli membranes (CYP6Z2 (AgCYP6Z2)) | Km [1] [µM] | kcat [1] [min⁻¹] | Km [2] [µM] | kcat [2] [min⁻¹] | Km [3] [µM] | kcat [3] [min⁻¹] | Km [4] [µM] | kcat [4] [min⁻¹] | Km [5] [µM] | kcat [5] [min⁻¹] |
| --- | --- | --- | --- | --- | --- | --- | --- | --- | --- | --- | --- |
| OCc1cccc(Oc2ccccc2)c1 [PBAlc] | demonstrated the ability of CYP6Z2 to metabolize both PBAlc and PBAld | – | – | – | – | – | – | – | – | – | – |
| O=Cc1cccc(Oc2ccccc2)c1 [PBAld] | demonstrated the ability of CYP6Z2 to metabolize both PBAlc and PBAld | – | – | – | – | – | – | – | – | – | – |
| B1 | – | 5.90 ± 0.90 | 0.98 ± 0.04 | 15.1 ± 2.9 | 0.66 ± 0.03 | 13.96 ± 3.14 | 0.13 ± 0.01 | 2.39 ± 0.28 | 1.19 ± 0.05 | 0.13 ± 0.02 | 0.097 ± 0.002 |
